One substance from EP1783227A1 can be followed below.

Where “and” joins values, the source holds several entries; their conditions need not be identical. Equal values may be shown once.

The assay concerns the target human CCR2 (endogenous, on THP-1 cells, THP-1 cell membranes, PBMC and whole blood leukocytes) (human) (UniProt P41597). The assay can be described thus: competition with 0.1 nM [125I]MCP-1 on fresh PBMC (500,000 cells), filtration and scintillation counting.
Chain of UniProt P41597 (P41597 whole entry): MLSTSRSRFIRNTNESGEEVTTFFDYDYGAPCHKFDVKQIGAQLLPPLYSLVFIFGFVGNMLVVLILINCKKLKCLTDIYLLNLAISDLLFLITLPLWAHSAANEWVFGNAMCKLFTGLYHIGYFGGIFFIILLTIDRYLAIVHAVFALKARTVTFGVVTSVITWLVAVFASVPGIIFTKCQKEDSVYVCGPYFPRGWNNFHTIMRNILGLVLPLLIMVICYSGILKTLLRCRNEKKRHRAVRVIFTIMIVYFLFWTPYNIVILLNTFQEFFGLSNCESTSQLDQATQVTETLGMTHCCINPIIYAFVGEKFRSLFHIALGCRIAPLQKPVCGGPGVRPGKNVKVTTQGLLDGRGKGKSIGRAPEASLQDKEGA

On to murine monoclonal antibody LS132.1D9, for which the IC50 was 0.2 nM and 0.04 µg/mL.

In general, IC50 refers to the concentration needed to halve the response being measured. Low readings indicate greater potency in that assay, high ones weaker potency in that assay.
